Experimental findings from US20220040297A1 (Chugai, published 2022) are described below.

B1: GLS3000 N30W (antibody, name in Kabat numbering, V domains shown)
VH: QVQLVESGGGVVQPGRSLRLSCAASGFTFSNAWMHWVRQAPGKGLEWVAQIKAKSNNYATYYAESVKGRFTISRDDSKNSLYLQMNSLKTEDTAVYYCRYVHYGAYYGVDAWGQGTTVTVSS
VL: DIVMTQSPLSLPVTPGEPASISCRSSQSLVHSNRWTYLHWYQQKPGQAPRLLIYKVSNRFSGVPDRFSGSGSGTDFTLKISRVEAEDVGVYYCGQGTQVPYTFGQGTKLEIK
notes: one-arm format as m2
B2: GLS3000 N53H (antibody, name in Kabat numbering, V domains shown)
VH: QVQLVESGGGVVQPGRSLRLSCAASGFTFSNAWMHWVRQAPGKGLEWVAQIKAKSNNYATYYAESVKGRFTISRDDSKNSLYLQMNSLKTEDTAVYYCRYVHYGAYYGVDAWGQGTTVTVSS
VL: DIVMTQSPLSLPVTPGEPASISCRSSQSLVHSNRNTYLHWYQQKPGQAPRLLIYKVSHRFSGVPDRFSGSGSGTDFTLKISRVEAEDVGVYYCGQGTQVPYTFGQGTKLEIK
notes: one-arm format as m2
B3: GLS3000 N53G (antibody, name in Kabat numbering, V domains shown)
VH: QVQLVESGGGVVQPGRSLRLSCAASGFTFSNAWMHWVRQAPGKGLEWVAQIKAKSNNYATYYAESVKGRFTISRDDSKNSLYLQMNSLKTEDTAVYYCRYVHYGAYYGVDAWGQGTTVTVSS
VL: DIVMTQSPLSLPVTPGEPASISCRSSQSLVHSNRNTYLHWYQQKPGQAPRLLIYKVSGRFSGVPDRFSGSGSGTDFTLKISRVEAEDVGVYYCGQGTQVPYTFGQGTKLEIK
notes: one-arm format as m2
B4: GLS3000 N53V (antibody, name in Kabat numbering, V domains shown)
VH: QVQLVESGGGVVQPGRSLRLSCAASGFTFSNAWMHWVRQAPGKGLEWVAQIKAKSNNYATYYAESVKGRFTISRDDSKNSLYLQMNSLKTEDTAVYYCRYVHYGAYYGVDAWGQGTTVTVSS
VL: DIVMTQSPLSLPVTPGEPASISCRSSQSLVHSNRNTYLHWYQQKPGQAPRLLIYKVSVRFSGVPDRFSGSGSGTDFTLKISRVEAEDVGVYYCGQGTQVPYTFGQGTKLEIK
notes: one-arm format as m2
B5: GLS3000 N53M (antibody, name in Kabat numbering, V domains shown)
VH: QVQLVESGGGVVQPGRSLRLSCAASGFTFSNAWMHWVRQAPGKGLEWVAQIKAKSNNYATYYAESVKGRFTISRDDSKNSLYLQMNSLKTEDTAVYYCRYVHYGAYYGVDAWGQGTTVTVSS
VL: DIVMTQSPLSLPVTPGEPASISCRSSQSLVHSNRNTYLHWYQQKPGQAPRLLIYKVSMRFSGVPDRFSGSGSGTDFTLKISRVEAEDVGVYYCGQGTQVPYTFGQGTKLEIK
notes: one-arm format as m2
B6: GLS3000 N53A (antibody, name in Kabat numbering, V domains shown)
VH: QVQLVESGGGVVQPGRSLRLSCAASGFTFSNAWMHWVRQAPGKGLEWVAQIKAKSNNYATYYAESVKGRFTISRDDSKNSLYLQMNSLKTEDTAVYYCRYVHYGAYYGVDAWGQGTTVTVSS
VL: DIVMTQSPLSLPVTPGEPASISCRSSQSLVHSNRNTYLHWYQQKPGQAPRLLIYKVSARFSGVPDRFSGSGSGTDFTLKISRVEAEDVGVYYCGQGTQVPYTFGQGTKLEIK
notes: one-arm format as m2
B7: GLS3000 N53Q (antibody, name in Kabat numbering, V domains shown)
VH: QVQLVESGGGVVQPGRSLRLSCAASGFTFSNAWMHWVRQAPGKGLEWVAQIKAKSNNYATYYAESVKGRFTISRDDSKNSLYLQMNSLKTEDTAVYYCRYVHYGAYYGVDAWGQGTTVTVSS
VL: DIVMTQSPLSLPVTPGEPASISCRSSQSLVHSNRNTYLHWYQQKPGQAPRLLIYKVSQRFSGVPDRFSGSGSGTDFTLKISRVEAEDVGVYYCGQGTQVPYTFGQGTKLEIK
notes: one-arm format as m2
B8: GLS3000 N53F (antibody, name in Kabat numbering, V domains shown)
VH: QVQLVESGGGVVQPGRSLRLSCAASGFTFSNAWMHWVRQAPGKGLEWVAQIKAKSNNYATYYAESVKGRFTISRDDSKNSLYLQMNSLKTEDTAVYYCRYVHYGAYYGVDAWGQGTTVTVSS
VL: DIVMTQSPLSLPVTPGEPASISCRSSQSLVHSNRNTYLHWYQQKPGQAPRLLIYKVSFRFSGVPDRFSGSGSGTDFTLKISRVEAEDVGVYYCGQGTQVPYTFGQGTKLEIK
notes: one-arm format as m2
B9: GLS3000 N53R (antibody, name in Kabat numbering, V domains shown)
VH: QVQLVESGGGVVQPGRSLRLSCAASGFTFSNAWMHWVRQAPGKGLEWVAQIKAKSNNYATYYAESVKGRFTISRDDSKNSLYLQMNSLKTEDTAVYYCRYVHYGAYYGVDAWGQGTTVTVSS
VL: DIVMTQSPLSLPVTPGEPASISCRSSQSLVHSNRNTYLHWYQQKPGQAPRLLIYKVSRRFSGVPDRFSGSGSGTDFTLKISRVEAEDVGVYYCGQGTQVPYTFGQGTKLEIK
notes: one-arm format as m2
B10: GLS3000 N53W (antibody, name in Kabat numbering, V domains shown)
VH: QVQLVESGGGVVQPGRSLRLSCAASGFTFSNAWMHWVRQAPGKGLEWVAQIKAKSNNYATYYAESVKGRFTISRDDSKNSLYLQMNSLKTEDTAVYYCRYVHYGAYYGVDAWGQGTTVTVSS
VL: DIVMTQSPLSLPVTPGEPASISCRSSQSLVHSNRNTYLHWYQQKPGQAPRLLIYKVSWRFSGVPDRFSGSGSGTDFTLKISRVEAEDVGVYYCGQGTQVPYTFGQGTKLEIK
notes: one-arm format as m2
B11: GLS3000 N53S (antibody, name in Kabat numbering, V domains shown)
VH: QVQLVESGGGVVQPGRSLRLSCAASGFTFSNAWMHWVRQAPGKGLEWVAQIKAKSNNYATYYAESVKGRFTISRDDSKNSLYLQMNSLKTEDTAVYYCRYVHYGAYYGVDAWGQGTTVTVSS
VL: DIVMTQSPLSLPVTPGEPASISCRSSQSLVHSNRNTYLHWYQQKPGQAPRLLIYKVSSRFSGVPDRFSGSGSGTDFTLKISRVEAEDVGVYYCGQGTQVPYTFGQGTKLEIK
notes: one-arm format as m2
B12: GLS3000 N53K (antibody, name in Kabat numbering, V domains shown)
VH: QVQLVESGGGVVQPGRSLRLSCAASGFTFSNAWMHWVRQAPGKGLEWVAQIKAKSNNYATYYAESVKGRFTISRDDSKNSLYLQMNSLKTEDTAVYYCRYVHYGAYYGVDAWGQGTTVTVSS
VL: DIVMTQSPLSLPVTPGEPASISCRSSQSLVHSNRNTYLHWYQQKPGQAPRLLIYKVSKRFSGVPDRFSGSGSGTDFTLKISRVEAEDVGVYYCGQGTQVPYTFGQGTKLEIK
notes: one-arm format as m2
B13: GLS3000 N30Y (antibody, name in Kabat numbering, V domains shown)
VH: QVQLVESGGGVVQPGRSLRLSCAASGFTFSNAWMHWVRQAPGKGLEWVAQIKAKSNNYATYYAESVKGRFTISRDDSKNSLYLQMNSLKTEDTAVYYCRYVHYGAYYGVDAWGQGTTVTVSS
VL: DIVMTQSPLSLPVTPGEPASISCRSSQSLVHSNRYTYLHWYQQKPGQAPRLLIYKVSNRFSGVPDRFSGSGSGTDFTLKISRVEAEDVGVYYCGQGTQVPYTFGQGTKLEIK
notes: one-arm format as m2
B14: GLS3000 N53D (antibody, name in Kabat numbering, V domains shown)
VH: QVQLVESGGGVVQPGRSLRLSCAASGFTFSNAWMHWVRQAPGKGLEWVAQIKAKSNNYATYYAESVKGRFTISRDDSKNSLYLQMNSLKTEDTAVYYCRYVHYGAYYGVDAWGQGTTVTVSS
VL: DIVMTQSPLSLPVTPGEPASISCRSSQSLVHSNRNTYLHWYQQKPGQAPRLLIYKVSDRFSGVPDRFSGSGSGTDFTLKISRVEAEDVGVYYCGQGTQVPYTFGQGTKLEIK
notes: one-arm format as m2
B15: GLS3000 N53L (antibody, name in Kabat numbering, V domains shown)
VH: QVQLVESGGGVVQPGRSLRLSCAASGFTFSNAWMHWVRQAPGKGLEWVAQIKAKSNNYATYYAESVKGRFTISRDDSKNSLYLQMNSLKTEDTAVYYCRYVHYGAYYGVDAWGQGTTVTVSS
VL: DIVMTQSPLSLPVTPGEPASISCRSSQSLVHSNRNTYLHWYQQKPGQAPRLLIYKVSLRFSGVPDRFSGSGSGTDFTLKISRVEAEDVGVYYCGQGTQVPYTFGQGTKLEIK
notes: one-arm format as m2
B16: GLS3000 N53P (antibody, name in Kabat numbering, V domains shown)
VH: QVQLVESGGGVVQPGRSLRLSCAASGFTFSNAWMHWVRQAPGKGLEWVAQIKAKSNNYATYYAESVKGRFTISRDDSKNSLYLQMNSLKTEDTAVYYCRYVHYGAYYGVDAWGQGTTVTVSS
VL: DIVMTQSPLSLPVTPGEPASISCRSSQSLVHSNRNTYLHWYQQKPGQAPRLLIYKVSPRFSGVPDRFSGSGSGTDFTLKISRVEAEDVGVYYCGQGTQVPYTFGQGTKLEIK
notes: one-arm format as m2
B17: GLS3000 N53Y (antibody, name in Kabat numbering, V domains shown)
VH: QVQLVESGGGVVQPGRSLRLSCAASGFTFSNAWMHWVRQAPGKGLEWVAQIKAKSNNYATYYAESVKGRFTISRDDSKNSLYLQMNSLKTEDTAVYYCRYVHYGAYYGVDAWGQGTTVTVSS
VL: DIVMTQSPLSLPVTPGEPASISCRSSQSLVHSNRNTYLHWYQQKPGQAPRLLIYKVSYRFSGVPDRFSGSGSGTDFTLKISRVEAEDVGVYYCGQGTQVPYTFGQGTKLEIK
notes: one-arm format as m2
B18: GLS3000 N53E (antibody, name in Kabat numbering, V domains shown)
VH: QVQLVESGGGVVQPGRSLRLSCAASGFTFSNAWMHWVRQAPGKGLEWVAQIKAKSNNYATYYAESVKGRFTISRDDSKNSLYLQMNSLKTEDTAVYYCRYVHYGAYYGVDAWGQGTTVTVSS
VL: DIVMTQSPLSLPVTPGEPASISCRSSQSLVHSNRNTYLHWYQQKPGQAPRLLIYKVSERFSGVPDRFSGSGSGTDFTLKISRVEAEDVGVYYCGQGTQVPYTFGQGTKLEIK
notes: one-arm format as m2
B19: GLS3000 N53I (antibody, name in Kabat numbering, V domains shown)
VH: QVQLVESGGGVVQPGRSLRLSCAASGFTFSNAWMHWVRQAPGKGLEWVAQIKAKSNNYATYYAESVKGRFTISRDDSKNSLYLQMNSLKTEDTAVYYCRYVHYGAYYGVDAWGQGTTVTVSS
VL: DIVMTQSPLSLPVTPGEPASISCRSSQSLVHSNRNTYLHWYQQKPGQAPRLLIYKVSIRFSGVPDRFSGSGSGTDFTLKISRVEAEDVGVYYCGQGTQVPYTFGQGTKLEIK
notes: one-arm format as m2
B20: GLS3000 N53T (antibody, name in Kabat numbering, V domains shown)
VH: QVQLVESGGGVVQPGRSLRLSCAASGFTFSNAWMHWVRQAPGKGLEWVAQIKAKSNNYATYYAESVKGRFTISRDDSKNSLYLQMNSLKTEDTAVYYCRYVHYGAYYGVDAWGQGTTVTVSS
VL: DIVMTQSPLSLPVTPGEPASISCRSSQSLVHSNRNTYLHWYQQKPGQAPRLLIYKVSTRFSGVPDRFSGSGSGTDFTLKISRVEAEDVGVYYCGQGTQVPYTFGQGTKLEIK
notes: one-arm format as m2

In the test the target is CD3ε homodimer protein (human, UniProt P07766 23-126, limits assumed). Description: SPR, immobilized CD3ε homodimer.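 Note: biacore T200 surface plasmon resonance at 25 °C, antibody variants flowed as analytes over amine-coupled CD3ε homodimer on a CM4 chip, variant binding amount divided by that of GLS3000 antibody.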 A general note: In SPR one partner is held on a chip, and binding of the other changes the refractive index at the surface.
CD3ε homodimer protein, sequence (P07766 23-126 limits assumed): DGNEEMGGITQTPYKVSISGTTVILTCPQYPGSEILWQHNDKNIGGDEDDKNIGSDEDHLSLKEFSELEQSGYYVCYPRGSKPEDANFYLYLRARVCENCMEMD
Consider B1, for which the “ratio of amounts bound (vs GLS3000)” value is 0.99. Next, B2: 1.18. Next, B3: 0.76. To B4 belongs 0.56; to B5, 0.62; to B6, 0.61. Regarding B7, the “ratio of amounts bound (vs GLS3000)” value came out at 0.77.

For B8, the “ratio of amounts bound (vs GLS3000)” value stood at 0.69. On to B9, for which the “ratio of amounts bound (vs GLS3000)” value came to 1.58.

In the case of B10, the “ratio of amounts bound (vs GLS3000)” value was 0.81. To B11 belongs 0.69; to B12, 1.08; to B13, 1.04.

Regarding B14, the “ratio of amounts bound (vs GLS3000)” value amounted to 0.34.

Consider B15, for which the “ratio of amounts bound (vs GLS3000)” value worked out at 0.56.

B16: the “ratio of amounts bound (vs GLS3000)” value is 0.81.

For the molecule B17, the “ratio of amounts bound (vs GLS3000)” value was found to be 0.67. Next, B18: 0.54.

B19: the “ratio of amounts bound (vs GLS3000)” value was determined as 0.5. Next, B20: 0.56.
